Test results: patent US20180087042A1 (OPKO BIOLOGICS, published 2018)

What was measured:
Experiment in all cases: cell-based or functional assay
Factor X = Factor X (UniProt P00742 41-488, limits assumed)
[1] = biological target: MOD-5014 (FVIIa-CTP3: activated Factor VII with three CTP peptides attached at the C-terminus) (human) (UniProt P08709)
[2] = biological target: NovoSeven® (commercial recombinant human FVIIa) (human) (UniProt P08709)

Factor X, sequence (P00742 41-488 limits assumed): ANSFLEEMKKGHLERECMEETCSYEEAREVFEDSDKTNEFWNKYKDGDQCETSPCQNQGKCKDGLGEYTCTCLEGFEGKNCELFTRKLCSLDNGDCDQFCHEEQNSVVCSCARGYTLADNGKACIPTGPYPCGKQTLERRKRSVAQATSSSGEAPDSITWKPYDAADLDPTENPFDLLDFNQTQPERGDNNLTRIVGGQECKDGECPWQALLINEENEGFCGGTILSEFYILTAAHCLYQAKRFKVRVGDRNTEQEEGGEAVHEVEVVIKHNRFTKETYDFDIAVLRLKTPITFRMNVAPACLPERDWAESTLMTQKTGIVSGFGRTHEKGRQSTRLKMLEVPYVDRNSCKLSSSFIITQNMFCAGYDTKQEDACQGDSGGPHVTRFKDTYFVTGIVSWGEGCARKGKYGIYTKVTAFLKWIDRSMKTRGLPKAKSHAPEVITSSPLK
tissue factor pathway inhibitor (TFPI), sequence (P10646 29-304 limits assumed): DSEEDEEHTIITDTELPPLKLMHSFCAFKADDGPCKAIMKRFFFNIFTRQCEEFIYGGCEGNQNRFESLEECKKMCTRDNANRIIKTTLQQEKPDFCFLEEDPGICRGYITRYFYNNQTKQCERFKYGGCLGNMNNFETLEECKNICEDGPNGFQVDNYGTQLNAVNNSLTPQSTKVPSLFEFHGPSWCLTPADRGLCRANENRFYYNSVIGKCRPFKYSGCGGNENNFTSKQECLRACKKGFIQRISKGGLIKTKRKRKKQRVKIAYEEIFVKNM
NovoSeven® (commercial recombinant human FVIIa), sequence (P08709 61-466 limits assumed): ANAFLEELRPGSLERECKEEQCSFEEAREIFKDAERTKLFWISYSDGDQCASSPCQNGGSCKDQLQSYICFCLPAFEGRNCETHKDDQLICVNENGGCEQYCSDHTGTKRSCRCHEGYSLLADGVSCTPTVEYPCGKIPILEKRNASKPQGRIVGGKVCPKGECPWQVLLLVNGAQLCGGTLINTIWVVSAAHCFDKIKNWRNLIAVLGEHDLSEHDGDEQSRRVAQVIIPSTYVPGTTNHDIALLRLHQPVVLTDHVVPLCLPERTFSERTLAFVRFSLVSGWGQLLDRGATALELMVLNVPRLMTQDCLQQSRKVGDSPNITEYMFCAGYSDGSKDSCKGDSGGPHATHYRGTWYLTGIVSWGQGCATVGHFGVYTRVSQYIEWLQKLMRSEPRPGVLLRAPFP

**Q.** Which results are given for “NovoSeven® (commercial recombinant human FVIIa) (from UniProt P08709 61-466) (enzyme)”?
**A.** EC50 of Factor X activation (BIOPHEN FVII chromogenic assay) (Factor X): 0.38 ng/mL; O.D, FX activation at rFVIIa 0.00128 ng/ml (Factor X): 0.123 O.D; O.D, FX activation at rFVIIa 0.00640 ng/ml (Factor X): 0.133 O.D; O.D, FX activation at rFVIIa 0.0320 ng/ml (Factor X): 0.138 O.D; O.D, FX activation at rFVIIa 0.160 ng/ml (Factor X): 0.178 O.D; O.D, FX activation at rFVIIa 0.80 ng/ml (Factor X): 0.303 O.D; O.D, FX activation at rFVIIa 4.00 ng/ml (Factor X): 0.352 O.D; O.D, FX activation at rFVIIa 20.00 ng/ml (Factor X): 0.365 O.D; O.D, FX activation at rFVIIa 100.00 ng/ml (Factor X): 0.363 O.D

**Q.** What does the source list for “tissue factor pathway inhibitor (TFPI) (from UniProt P10646 29-304)”?
**A.** % Inhibition of clotting activity, TFPI 0.625 ng/mL [1]: 15%; % Inhibition of clotting activity, TFPI 6.25 ng/mL [1]: 15%; % Inhibition of clotting activity, TFPI 62.5 ng/mL [1]: 29%; % Inhibition of clotting activity, TFPI 625 ng/mL [1]: 80%; % Inhibition of clotting activity, TFPI 1250 ng/mL [1]: 89%; Activity (mU/mL), Staclot clotting, TFPI 0.625 ng/mL [1]: 56.7 mU/mL; Activity (mU/mL), Staclot clotting, TFPI 6.25 ng/mL [1]: 56.7 mU/mL; Activity (mU/mL), Staclot clotting, TFPI 62.5 ng/mL [1]: 47.4 mU/mL; Activity (mU/mL), Staclot clotting, TFPI 625 ng/mL [1]: 13.2 mU/mL; Activity (mU/mL), Staclot clotting, TFPI 1250 ng/mL [1]: 7.3 mU/mL; FX activation by MOD-5014 (0.7 ng/ml) + 1 U/µl heparin at TFPI 0.002048 ng/ml [1]: 1.27; FX activation by MOD-5014 (0.7 ng/ml) + 1 U/µl heparin at TFPI 0.010240 ng/ml [1]: 1.29; FX activation by MOD-5014 (0.7 ng/ml) + 1 U/µl heparin at TFPI 0.051200 ng/ml [1]: 1.35; FX activation by MOD-5014 (0.7 ng/ml) + 1 U/µl heparin at TFPI 1.28 ng/ml [1]: 1.26; FX activation by MOD-5014 (0.7 ng/ml) + 1 U/µl heparin at TFPI 6.40 ng/ml [1]: 1.16; FX activation by MOD-5014 (0.7 ng/ml) + 1 U/µl heparin at TFPI 32.00 ng/ml [1]: 0.915; FX activation by MOD-5014 (0.7 ng/ml) + 1 U/µl heparin at TFPI 160.00 ng/ml [1]: 0.539; FX activation by MOD-5014 (0.7 ng/ml) + 1 U/µl heparin at TFPI 800.00 ng/ml [1]: 0.32; FX activation by MOD-5014 (0.7 ng/ml) + 1 U/µl heparin at TFPI 4000.00 ng/ml [1]: 0.115; FX activation by MOD-5014 (0.7 ng/ml) + 1 U/µl heparin at TFPI 20000.00 ng/ml [1]: 0.15; FX activation by MOD-5014 (4 ng/ml) at TFPI 0.002048 ng/ml [1]: 1.65; FX activation by MOD-5014 (4 ng/ml) at TFPI 0.010240 ng/ml [1]: 1.64; FX activation by MOD-5014 (4 ng/ml) at TFPI 0.051200 ng/ml [1]: 1.6; FX activation by MOD-5014 (4 ng/ml) at TFPI 0.2560 ng/ml [1]: 1.62; FX activation by MOD-5014 (4 ng/ml) at TFPI 1.28 ng/ml [1]: 1.56; FX activation by MOD-5014 (4 ng/ml) at TFPI 6.40 ng/ml [1]: 1.54; FX activation by MOD-5014 (4 ng/ml) at TFPI 32.00 ng/ml [1]: 1.47; FX activation by MOD-5014 (4 ng/ml) at TFPI 160.00 ng/ml [1]: 1.14; FX activation by MOD-5014 (4 ng/ml) at TFPI 800.00 ng/ml [1]: 0.836; FX activation by MOD-5014 (4 ng/ml) at TFPI 4000.00 ng/ml [1]: 0.38; FX activation by MOD-5014 (4 ng/ml) at TFPI 20000.00 ng/ml [1]: 0.17; O.D, FX activation by MOD-5014 (0.69 ng/ml) at TFPI 0.002048 ng/ml [1]: 1.48 O.D; O.D, FX activation by MOD-5014 (0.69 ng/ml) at TFPI 0.010240 ng/ml [1]: 1.45 O.D; O.D, FX activation by MOD-5014 (0.69 ng/ml) at TFPI 0.051200 ng/ml [1]: 1.45 O.D; O.D, FX activation by MOD-5014 (0.69 ng/ml) at TFPI 0.2560 ng/ml [1]: 1.46 O.D; O.D, FX activation by MOD-5014 (0.69 ng/ml) at TFPI 1.28 ng/ml [1]: 1.39 O.D; O.D, FX activation by MOD-5014 (0.69 ng/ml) at TFPI 6.40 ng/ml [1]: 1.38 O.D; O.D, FX activation by MOD-5014 (0.69 ng/ml) at TFPI 32.00 ng/ml [1]: 1.36 O.D; O.D, FX activation by MOD-5014 (0.69 ng/ml) at TFPI 160.00 ng/ml [1]: 1.11 O.D; O.D, FX activation by MOD-5014 (0.69 ng/ml) at TFPI 800.00 ng/ml [1]: 1.01 O.D; O.D, FX activation by MOD-5014 (0.69 ng/ml) at TFPI 4000.00 ng/ml [1]: 0.691 O.D; O.D, FX activation by MOD-5014 (0.69 ng/ml) at TFPI 20000.00 ng/ml [1]: 0.346 O.D; % Inhibition of clotting activity, TFPI 0.625 ng/mL [2]: 25%; % Inhibition of clotting activity, TFPI 6.25 ng/mL [2]: 24%; % Inhibition of clotting activity, TFPI 62.5 ng/mL [2]: 38%; % Inhibition of clotting activity, TFPI 625 ng/mL [2]: 87%; % Inhibition of clotting activity, TFPI 1250 ng/mL [2]: 96%; Activity (mU/mL), Staclot clotting, TFPI 0.625 ng/mL [2]: 54.5 mU/mL; Activity (mU/mL), Staclot clotting, TFPI 6.25 ng/mL [2]: 55.3 mU/mL; Activity (mU/mL), Staclot clotting, TFPI 62.5 ng/mL [2]: 45 mU/mL; Activity (mU/mL), Staclot clotting, TFPI 625 ng/mL [2]: 9.5 mU/mL; Activity (mU/mL), Staclot clotting, TFPI 1250 ng/mL [2]: 2.9 mU/mL; FX activation by NovoSeven® (0.7 ng/ml) + 1 U/µl heparin at TFPI 0.002048 ng/ml [2]: 1.33; FX activation by NovoSeven® (0.7 ng/ml) + 1 U/µl heparin at TFPI 0.010240 ng/ml [2]: 1.3; FX activation by NovoSeven® (0.7 ng/ml) + 1 U/µl heparin at TFPI 0.051200 ng/ml [2]: 1.37; FX activation by NovoSeven® (0.7 ng/ml) + 1 U/µl heparin at TFPI 1.28 ng/ml [2]: 1.31; FX activation by NovoSeven® (0.7 ng/ml) + 1 U/µl heparin at TFPI 6.40 ng/ml [2]: 1.21; FX activation by NovoSeven® (0.7 ng/ml) + 1 U/µl heparin at TFPI 32.00 ng/ml [2]: 1.01; FX activation by NovoSeven® (0.7 ng/ml) + 1 U/µl heparin at TFPI 160.00 ng/ml [2]: 0.764; FX activation by NovoSeven® (0.7 ng/ml) + 1 U/µl heparin at TFPI 800.00 ng/ml [2]: 0.409; FX activation by NovoSeven® (0.7 ng/ml) + 1 U/µl heparin at TFPI 4000.00 ng/ml [2]: 0.241; FX activation by NovoSeven® (0.7 ng/ml) + 1 U/µl heparin at TFPI 20000.00 ng/ml [2]: 0.222; FX activation by NovoSeven® (4 ng/ml) at TFPI 0.002048 ng/ml [2]: 1.72; FX activation by NovoSeven® (4 ng/ml) at TFPI 0.010240 ng/ml [2]: 1.7; FX activation by NovoSeven® (4 ng/ml) at TFPI 0.051200 ng/ml [2]: 1.73; FX activation by NovoSeven® (4 ng/ml) at TFPI 0.2560 ng/ml [2]: 1.7; FX activation by NovoSeven® (4 ng/ml) at TFPI 1.28 ng/ml [2]: 1.66; FX activation by NovoSeven® (4 ng/ml) at TFPI 6.40 ng/ml [2]: 1.59; FX activation by NovoSeven® (4 ng/ml) at TFPI 32.00 ng/ml [2]: 1.5; FX activation by NovoSeven® (4 ng/ml) at TFPI 160.00 ng/ml [2]: 1.34; FX activation by NovoSeven® (4 ng/ml) at TFPI 800.00 ng/ml [2]: 1.02; FX activation by NovoSeven® (4 ng/ml) at TFPI 4000.00 ng/ml [2]: 0.406; FX activation by NovoSeven® (4 ng/ml) at TFPI 20000.00 ng/ml [2]: 0.206; O.D, FX activation by NovoSeven® (0.64 ng/ml) at TFPI 0.002048 ng/ml [2]: 1.5 O.D; O.D, FX activation by NovoSeven® (0.64 ng/ml) at TFPI 0.010240 ng/ml [2]: 1.51 O.D; O.D, FX activation by NovoSeven® (0.64 ng/ml) at TFPI 0.051200 ng/ml [2]: 1.52 O.D; O.D, FX activation by NovoSeven® (0.64 ng/ml) at TFPI 0.2560 ng/ml [2]: 1.43 O.D; O.D, FX activation by NovoSeven® (0.64 ng/ml) at TFPI 1.28 ng/ml [2]: 1.47 O.D; O.D, FX activation by NovoSeven® (0.64 ng/ml) at TFPI 6.40 ng/ml [2]: 1.42 O.D; O.D, FX activation by NovoSeven® (0.64 ng/ml) at TFPI 32.00 ng/ml [2]: 1.38 O.D; O.D, FX activation by NovoSeven® (0.64 ng/ml) at TFPI 160.00 ng/ml [2]: 1.34 O.D; O.D, FX activation by NovoSeven® (0.64 ng/ml) at TFPI 800.00 ng/ml [2]: 1.04 O.D; O.D, FX activation by NovoSeven® (0.64 ng/ml) at TFPI 4000.00 ng/ml [2]: 0.83 O.D; O.D, FX activation by NovoSeven® (0.64 ng/ml) at TFPI 20000.00 ng/ml [2]: 0.429 O.D
